The record followed here is patent US20230183352A1 (published 2023).

Test [1] concerns the target T1, Claudin 18.2 (CLDN18.2), expressed on CHOS-CLDN 18.2 / HEK293-CLDN 18.2 / HCC827-CLDN 18.2 cells (human, UniProt P56856-2 1-261).
T1 construct: whole, on cells; The species is not repeated for the CHOS-CLDN 18.2 cells; also called claudin-18A2
Briefly: FACS, CHOS-CLDN18.2 cells, 5 µg/ml.
Procedure: (§1) The initial concentration of the antibody was 20 μg/ml, it was diluted at 1:4, and incubated at 4° C. for 60 min.

Test [2] has as its target T1, Claudin 18.2 (CLDN18.2), expressed on …. Briefly: FACS, CHOS-CLDN18.2 cells, 0.020 µg/ml.
Procedure: as §1
For test [3] the target is unchanged. Briefly: FACS, CHOS-CLDN18.2 cells, 0.005 µg/ml. A general note: Flow cytometry measures light scatter and fluorescence of single cells or particles in a stream.
Procedure: as §1
Test [4] has the same target. As to the kind of experiment: FACS, CHOS-CLDN18.2 cells.
Procedure: as §1
For test [5] the target is unchanged. Briefly: FACS, CHOS-CLDN18.2 cells, 10 µg/ml.
Procedure: (§2) The initial concentration of the antibody was 20 μg/mkit was diluted at 1:4, and incubated at 4° C. for 60 min.
Test [6] has the same target. Briefly: FACS, CHOS-CLDN18.2 cells, 0.313 µg/ml.
Procedure: as §1
The target is the same in test [7]. Briefly: FACS, CHOS-CLDN18.2 cells, 1.250 µg/ml.
Procedure: as §1
The target is the same in test [8]. As to the kind of experiment: FACS, CHOS-CLDN18.2 cells, 0 µg/ml (background).
Procedure: as §1
The target is the same in test [9]. Briefly: FACS, CHOS-CLDN18.2 cells, 0.078 µg/ml.
Procedure: as §1
The target is the same in test [10]. As to the kind of experiment: FACS, MFI on CHOS-CLDN18.2 over MFI on CHOS-CLDN18.1, 10 µg/ml.
Procedure: as §2
The target is the same in test [11]. Briefly: FACS, CHOS-CLDN18.2 cells, 20 µg/ml.
Procedure: as §1
Test [12] has the same target. Briefly: FACS, CHOS-CLDN18.2 cells, 0.313 µg/ml. The source holds these as a separate data set.
Procedure: as §1
Test [13] has the same target. Briefly: cell-based or functional assay.
Test [14] shares this target. Briefly: FACS, CHOS-CLDN18.2 cells. The source holds these as a separate data set.
Procedure: as §1
Test [15] has the same target. Briefly: FACS, CHOS-CLDN18.2 cells, 0.078 µg/ml. The source holds these as a separate data set.
Procedure: as §1
Test [16] has the same target. Briefly: FACS, CHOS-CLDN18.2 cells, 0.020 µg/ml. The source holds these as a separate data set.
Procedure: as §1
Test [17] shares this target. Briefly: FACS, CHOS-CLDN18.2 cells, 20 µg/ml. This is another data set of the same source.
Procedure: as §1
Test [18] shares this target. Briefly: FACS, CHOS-CLDN18.2 cells, 0 µg/ml (background). This is another data set of the same source.
Procedure: as §1
Test [19] shares this target. As to the kind of experiment: FACS, CHOS-CLDN18.2 cells, 5 µg/ml. This is another data set of the same source.
Procedure: as §1
Test [20] has the same target. Briefly: FACS, CHOS-CLDN18.2 cells, 1.250 µg/ml. This is another data set of the same source.
Procedure: as §1
For test [21] the target is unchanged. Briefly: FACS, CHOS-CLDN18.2 cells, 0.005 µg/ml. This is another data set of the same source.
Procedure: as §1

Positions count from the first letter of the chain named. Like-named read-outs stand apart in the source and are kept apart here.

B1: QP14501448 (antibody, human IgG1, kappa, V domains shown)
VH: EVQLVESGGGLVQPGGSLRLSCAASGFTFSSFGMHWVRQAPGKGLEWVAYISSGSNSIYYVDTVKGRFTISRDNAKNSLYLQMNSLRDEDTAVYYCARNAYYGNSFDYWGQGTLVTVSS
VL: DIVMTQSPDSLAVSLGERATISCKSSQSLLNSGNQKNYLTWYQQKPGQPPKLLIYWASTRESGVPDRFTGSGSGTVFTLTISSLQAEDVAVYFCQNNYYYPLTFGGGTKVEIKR
notes: Humanized from QP199200
As a reminder, the EC50 is the concentration at which the effect is half-maximal. B1: the FACS reading in [1] is 149000; in test [2], 7460; in test [3], 2480; in [6], 45600; in [7], 108000; in test [8], 732. Also, the FACS reading is 14200 in test [9] and 117000 in [11]. Moreover, the response in test [4] was half-maximal at 0.498 µg/mL (EC50). The molecule also displayed a max in [4] of 149000. In test [5], this molecule came in with an MFI of 540000. For the same molecule, in [10], the “CLDN18.2/CLDN18.1 (MFI ratio)” value is 501.

B2: QP14501446 (antibody, human IgG1, kappa, V domains shown)
VH: B1 VH
VL: B1 VL with S22N, T69S, V76D, F93Y
notes: Humanized from QP199200
On to B2, for which the FACS reading in test [1] was 143000; in test [2], 6350; in test [3], 2330; in test [6], 39500; in test [7], 96200; in [8], 732. Besides, the figures for the FACS reading in test [9] and in test [11] were 13900 and 160000, respectively. The EC50 in test [4] was 0.962 µg/mL. In addition, the max in test [4] came out at 143000. The same molecule had an MFI in [5] of 505000. Also, the “CLDN18.2/CLDN18.1 (MFI ratio)” value in [10] is 510.

B3: QP14491448 (antibody, human IgG1, kappa, V domains shown)
VH: B1 VH with A49S
VL: B1 VL
notes: Humanized from QP199200
For B3, the FACS reading amounted to 154000 in test [1]; 6320 in test [2]; 2410 in [3]; 45100 in [6]; 132000 in test [7]; 732 in test [8]. For the same molecule, the FACS reading in test [9] is 19200; in [11] it was 183000. The molecule also displayed an EC50 in test [4] of 0.666 µg/mL. Moreover, the max in test [4] turned out to be 154000. The molecule further came in with an MFI in [5] of 484000. Further, the “CLDN18.2/CLDN18.1 (MFI ratio)” value in test [10] was 487.

B4: QP14631461 (antibody, human IgG1, kappa, V domains shown)
VH: QVQLVQSGAEVKKPGASVKVSCKASGYTFTSYIMHWVRQAPGQGLEWMGYINPYNDGTKYNEKFKGRVTMTRDTSTSTVYMELSSLRSEDTAVYYCARLGFTTRNAMDYWGQGTLVTVSS
VL: DIVMTQSPDSLAVSLGERATINCKSSQSLLNSGNQKNYLAWYQQKPGQPPKLLIYGASTRESGVPDRFTGSGSGTDFTLTISSLQAEDVAVYYCQNDHSYPFTFGQGTKLEIKR
notes: also called QP14611463
In [12], B4 gave an FACS reading of 144000. In test [13], the “EC50 of killing, ADCC (PBMC, HEK293-CLDN18.2 cells)” value amounted to 0.0115 µg/mL; the “Killing percentage, ADCC (PBMC, HEK293-CLDN18.2 cells), 0 µg/ml” value came out at 4.88%; the “Killing percentage, ADCC (PBMC, HEK293-CLDN18.2 cells), 0.0001024 µg/ml” value was determined as 4.3%; the “Killing percentage, ADCC (PBMC, HEK293-CLDN18.2 cells), 0.000512 µg/ml” value came out at 5.65%. Further, in [13], the “Killing percentage, ADCC (PBMC, HEK293-CLDN18.2 cells), 0.00256 µg/ml” value was found to be 10.2%; the “Killing percentage, ADCC (PBMC, HEK293-CLDN18.2 cells), 0.0128 µg/ml” value was 23.4%; the “Killing percentage, ADCC (PBMC, HEK293-CLDN18.2 cells), 0.064 µg/ml” value was 39.3%; the “Killing percentage, ADCC (PBMC, HEK293-CLDN18.2 cells), 0.32 µg/ml” value is 43.8%. Further, in test [13], the “Killing percentage, ADCC (PBMC, HEK293-CLDN18.2 cells), 1.6 µg/ml” value came out at 43.4%; the “Killing percentage, ADCC (PBMC, HEK293-CLDN18.2 cells), 8 µg/ml” value stood at 46.3%; the “Killing percentage, ADCC (PBMC, HEK293-CLDN18.2 cells), 40 µg/ml” value stood at 28.6%. In [14], the EC50 is 0.156 µg/mL and the max is 227000. The same molecule came in with an FACS reading in [15] of 51400. This molecule returned an MFI in [5] of 657000. This molecule returned an FACS reading in test [16] of 19300. Further, the FACS reading in test [17] amounted to 131000. Further, in [18], the FACS reading is 732. This molecule showed an FACS reading in [19] of 227000. Further, the FACS reading in [20] amounted to 201000. Further, the FACS reading in test [21] turned out to be 7790. Moreover, the “CLDN18.2/CLDN18.1 (MFI ratio)” value in test [10] was determined as 700.

B5: QP199200 (antibody, human IgG1, V domains shown)
VH: DVQLVESGGGLVQPGGSRKLSCAASGFTFSSFGMHWVRQAPEKGLEWVAYISSGSNSIYYVDTVKGRFTISRDNPKNTLFLQMTSLKSEDTAMYYCARNAYYGNSFDYWGQGTTLTVSS
VL: DIVMTQSPSSLTVTAGEKVTMSCKSSQSLLNSGNQKNYLTWYQQKPGQPPKLLIYWASTRESGVPDRFTGSGSGTVFTLTISSVQAEDLAVYFCQNNYYYPLTFGAGTKLELK
notes: Chimeric; also called 43C11; mouse-derived chimeric antibody QP199200
Turning to B5, the FACS reading was 165000 in test [1]; 7520 in [2]; 2760 in test [3]; 50600 in [6]; 132000 in test [7]; 732 in test [8]. Moreover, the FACS reading turned out to be 19900 in test [9] and 218000 in test [11]. The molecule also returned an EC50 in test [4] of 1.19 µg/mL. This molecule had a max in test [4] of 165000. For the same molecule, the MFI in [5] came to 514000. Further, in [10], the “CLDN18.2/CLDN18.1 (MFI ratio)” value was determined as 560.
